From the supplement of paper PMC9732359
± gives the uncertainty stated by the source.

Assay: protein stability index of a GFP-peptide fusion (yeast GPS) (PSI 1-4); higher = more stable; sorted into four equal gates, so the index is relative within each strain
How it was run: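 Plasmids isolated from each sorting gate were PCR-amplified and Illumina-sequenced, and barcodes assigned the reads to strains. The gates, four of equal size, were set by GFP/Cherry fluorescence ratio on mid-log cultures in leucine-free medium. These cultures were yeast carrying a pooled library of tiled 17-residue yeast protein peptides fused downstream of GFP on a plasmid that also expresses Cherry. The protein stability index is the sum of every gate's read frequency times its gate number.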

Row | Sequence | protein stability index (doa10∆) | protein stability index (pdr5∆) | protein stability index (san1∆) | protein stability index (ubr1∆)
1 | IVVMDCFNLPVVGTETR [RRI1] | 2.24 ± 0.13 | 2.66 ± 0.12 | 2.29 ± 0.17 | –
2 | ETKTKKEKIKGLQDEIM [SMC4] | 3.12 ± 0.11 | 3.32 ± 0.13 | 3.13 ± 0.06 | 3.38 ± 0.068
3 | PKALRFDRLVAGQIPTG [FAS2] | 2.15 ± 0.18 | – | 2.59 ± 0.25 | –
4 | SRTLILSILNEIKKVTQ [SIN4] | 3.05 ± 0.12 | 2.56 ± 0.15 | 2.27 ± 0.11 | 2.82 ± 0.084
5 | SFLFDVLKTLEYKLATY [NUT1] | 2.33 ± 0.062 | 2.18 ± 0.07 | 3 ± 0.097 | 2.03 ± 0.074
6 | RDREPKEPVALIETVRQ [RPN2] | 3.32 ± 0.081 | 3.47 ± 0.12 | 3.12 ± 0.079 | 3.34 ± 0.071
7 | CEINYYEILLKILITYG [SRB8] | 1.2 ± 0.047 | 1.54 ± 0.065 | 1.17 ± 0.1 | 1.2 ± 0.076
8 | AAKIIYLAHEDNKEKDF [PRE10] | 2.81 ± 0.19 | 3.18 ± 0.098 | 3.25 ± 0.11 | 3.01 ± 0.23
9 | NAQQTFHIDHTKPSDLT [RPO21] | 2.85 ± 0.044 | 2.6 ± 0.042 | 2.69 ± 0.048 | 2.82 ± 0.041
10 | GLGETSGDNHTQQSHEQ [RPT4] | 3.32 ± 0.14 | 3.19 ± 0.21 | – | 3.23 ± 0.22
11 | EKSLLPKIETNVYVGMT [ISW2] | 2.92 ± 0.13 | 2.97 ± 0.11 | 3.07 ± 0.098 | 3.2 ± 0.1
12 | PLHSGKTSLMDLLVIDS [SNU114] | 2.48 ± 0.068 | 2.75 ± 0.085 | 2.81 ± 0.1 | 2.47 ± 0.048
13 | ILRMGAFRTIESKSDDN [RRI1] | 2.88 ± 0.094 | 2.8 ± 0.11 | 2.92 ± 0.066 | 2.56 ± 0.065
14 | VSADDFVEEQNVYVLPK [PRP8] | 3.44 ± 0.099 | 3.18 ± 0.11 | 3.07 ± 0.12 | 3.32 ± 0.083
15 | TTDSLTKVLQADLPGSY [YMR129W/POM152] | 2.38 ± 0.082 | 2.79 ± 0.14 | 2.49 ± 0.1 | 2.43 ± 0.078
16 | KKVQALQSDKNFLDNCL [ITC1] | 3.13 ± 0.084 | 2.83 ± 0.05 | 2.83 ± 0.046 | 3.05 ± 0.036
17 | FHILLKLILEWVAPQES [ECM29] | – | 2.08 ± 0.27 | 1.53 ± 0.17 | 1.77 ± 0.14
18 | AGERKIPHDLNFLQESY [TAF14] | 2.83 ± 0.086 | 3 ± 0.079 | 2.71 ± 0.064 | 2.62 ± 0.071
19 | NVFNDTPRGNHWMGSSV [YMR129W/POM152] | 3.39 ± 0.11 | 3.46 ± 0.099 | 2.98 ± 0.075 | 3.12 ± 0.081
20 | EFEKKLQETLNKSTSSE [YIL149C/MLP2] | 2.95 ± 0.12 | 2.66 ± 0.11 | 3.17 ± 0.14 | 3.27 ± 0.15
21 | DNEGVASKSKKKFNMGK [RPC53] | 3.33 ± 0.091 | 3.12 ± 0.13 | 3.15 ± 0.08 | 3.42 ± 0.08
22 | VKGDLLQEAIDFAQKEI [PRE10] | 2.9 ± 0.076 | 2.84 ± 0.066 | 3.2 ± 0.054 | 2.9 ± 0.048
23 | GGGAARRQAVDVSPLRR [RPS5] | 2.28 ± 0.1 | 1.76 ± 0.056 | 2.15 ± 0.11 | 1.85 ± 0.093
24 | FSERAAMFAALQQKQQQ [SWI1] | 1.7 ± 0.042 | 2.15 ± 0.042 | 2.05 ± 0.078 | 2.01 ± 0.027
25 | DDVRDFVIRREVTKGEK [RPS6A] | 3.37 ± 0.14 | 3.4 ± 0.094 | 3.08 ± 0.14 | 3.62 ± 0.18
26 | FYLYMLVQKFGGADQVT [SWI1] | – | 1.35 ± 0.19 | – | 1.75 ± 0.14

Row | Sequence | protein stability index (doa10∆) | protein stability index (pdr5∆) | protein stability index (san1∆) | protein stability index (ubr1∆)
27 | EIGLLPEDALVNDFSDI [SMC3] | 3.44 ± 0.089 | 2.91 ± 0.12 | 3.19 ± 0.088 | 3.3 ± 0.11
28 | RRGAHGSELSSKIRKIH [SIR3] | 2.32 ± 0.12 | 2.02 ± 0.087 | 2.57 ± 0.15 | 2.54 ± 0.063
29 | VLDSMTKEELESDGRMF [SRP54] | 3.02 ± 0.088 | 3.2 ± 0.089 | 3.37 ± 0.051 | 2.27 ± 0.059
30 | IQPKITELKKKLDDLEN [SMC1] | 3.11 ± 0.13 | 2.79 ± 0.13 | 3.11 ± 0.14 | 2.71 ± 0.14
31 | YCDSMGRPQRKMMSFQA [RPB5] | 3.5 ± 0.12 | 3.19 ± 0.13 | 3.48 ± 0.058 | 3.3 ± 0.09
32 | TSQNPQRDAEISQPKSM [BRR2] | 3.27 ± 0.11 | 3.04 ± 0.27 | 3.11 ± 0.13 | 2.88 ± 0.11
33 | YKVMHQIRACKDLKHII [PRP8] | 2.27 ± 0.041 | 2.41 ± 0.046 | 2.21 ± 0.052 | 2.19 ± 0.05
34 | PRLGSIDRNLKCQTCQE [RPO21] | 2.01 ± 0.099 | 1.7 ± 0.056 | 2.18 ± 0.12 | 2.67 ± 0.069
35 | VFGASDKQAEGTPLFTF [YOR098C/NUP1] | 2.83 ± 0.074 | 2.86 ± 0.087 | 3 ± 0.097 | 3.21 ± 0.081
36 | AFVSVYSKNNPNLLFSM [PRP8] | 1.93 ± 0.063 | 2.74 ± 0.058 | 2.61 ± 0.064 | 2.71 ± 0.038
37 | LNSLKDERSQGEKNFTS [SMC4] | 3.41 ± 0.12 | 3.3 ± 0.25 | 3.05 ± 0.087 | 3.5 ± 0.11
38 | SSDAFEVDVCDKCGLMG [RET1] | 2.38 ± 0.18 | 2.59 ± 0.11 | 2.33 ± 0.19 | 2.12 ± 0.11
39 | PQIVVPDAQNELPKFIL [DIS3] | 2.9 ± 0.049 | 3.09 ± 0.06 | 2.92 ± 0.043 | 2.98 ± 0.077
40 | IIRPILGKVRFANYKLL [SRB4] | 1.44 ± 0.045 | 1.75 ± 0.043 | 1.14 ± 0.1 | 1.73 ± 0.057
41 | SLRILAKLSERSNGSVA [YJL039C/NUP192] | 2.5 ± 0.048 | 2.27 ± 0.04 | 1.93 ± 0.067 | 2.42 ± 0.043
42 | FTGDFLRRVEERFTKSK [FAS1] | 3.29 ± 0.14 | 3.6 ± 0.16 | 3.19 ± 0.083 | 2.78 ± 0.27
43 | RPQKLRASLVPGTVLIL [RPL6A] | 2.1 ± 0.066 | 2.32 ± 0.064 | 2.11 ± 0.077 | 2.45 ± 0.081
44 | DSVFSFGPKKENRKKDE [YLR335W/NUP2] | 3.01 ± 0.091 | 2.86 ± 0.078 | 2.9 ± 0.048 | 3.03 ± 0.056
45 | YGFSNKEYISRLWHTLK [SNF5] | 1.57 ± 0.098 | 2.56 ± 0.21 | 2.39 ± 0.2 | 1.19 ± 0.13
46 | RVKAMEVDEKPTETYSD [RPT5] | 3.46 ± 0.1 | 3.32 ± 0.075 | 3.1 ± 0.074 | 3.12 ± 0.077
47 | IPNIPPNINTWQQVTAL [GAL11] | 2.96 ± 0.14 | 3.15 ± 0.1 | 2.9 ± 0.11 | 2.54 ± 0.12
48 | ATAAESDVAKQLAALGY [RPL16A] | 2.98 ± 0.042 | 2.91 ± 0.056 | 3.18 ± 0.045 | 3.2 ± 0.048
49 | REGRHSGYGKRKGTREA [RPL19A] | – | 3.21 ± 0.27 | – | 3.52 ± 0.25
50 | EKSRISERDSKDRYING [YMR129W/POM152] | 3.01 ± 0.09 | 3.08 ± 0.062 | 3.04 ± 0.066 | 2.54 ± 0.05
51 | TLLESNLCKIIEPFECV [RPN6] | 2.26 ± 0.085 | 2.81 ± 0.12 | 2.28 ± 0.12 | 2.88 ± 0.16
